Laboratory results from patent US20160186238A1.

Target: trypsin (bovine) (UniProt P00760)
Test: trypsin activity inhibition, fluorogenic substrate Z-Arg-AMC, fit of activity vs inhibitor concentration

Sequence of trypsin (bovine) (P00760 24-246): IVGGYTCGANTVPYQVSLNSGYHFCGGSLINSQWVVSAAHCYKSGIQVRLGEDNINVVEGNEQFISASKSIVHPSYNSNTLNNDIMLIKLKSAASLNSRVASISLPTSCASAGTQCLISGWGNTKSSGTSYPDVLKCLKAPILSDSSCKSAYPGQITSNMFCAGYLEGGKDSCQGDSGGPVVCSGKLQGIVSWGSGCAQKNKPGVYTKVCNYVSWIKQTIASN

For antipain (peptide), which Ki is on record?
The Ki was 39.5 nM.
